Laboratory results reported in PMC3545058.

Legend:
[1] = molecular target: EhRGS-RhoGEF (Entamoeba histolytica); assay: SPR
[2] = molecular target: GST-EhGα1 (Entamoeba histolytica); assay: SPR

Row | Substance | Kd [1] | Kd [2]
1 | EhRacC(Q65L) (from UniProt Q24816 1-194) (natural protein) | 34 µM | –
2 | EhGα1 (natural protein) | 5.2 µM | –
3 | EhRGS-RhoGEF (natural protein) | – | 5.7 µM
4 | EhGα1(Q189L) (natural protein) | 110 µM | –
